Measured values as given in publication PMC10323135.

Target: Norovirus-like particle displaying C-terminal SpyTag (norovirus VP1 capsid protein fused with a C-terminal SpyTag) (norovirus strain Hu/GII.4/Sydney/NSW0514/2012/AU)
Assay: SDS-PAGE mobility shift of the covalent SpyTag/SpyCatcher conjugate

SpyCatcher-M2e (SpyCatcher fused with the ectodomain of influenza matrix-2 protein) (designed binder)
conjugation efficiency: 24%
